B1: Pyocin S5 (natural protein)
chain: MSNDNEVPGSMVIVAQGPDDQYAYEVPPIDSAAVAGNMFGDLIQREIYLQKNIYYPVRSIFEQGTKEKKEINKKVSDQVDGLLKQITQGKREATRQERVDVMSAVLHKMESDLEGYKKTFTKGPFIDYEKQSSLSIYEAWVKIWEKNSWEERKKYPFQQLVRDELERAVAYYKQDSLSEAVKVLRQELNKQKALKEKEDLSQLERDYRTRKANLEMKVQSELDQAGSALPPLVSPTPEQWLERATRLVTQAIADKKQLQTTNNTLIKNSPTPLEKQKAIYNGELLVDEIASLQARLVKLNAETTRRRTEAERKAAEEQALQDAIKFTADFYKEVTEKFGARTSEMARQLAEGARGKNIRSSAEAIKSFEKHKDALNKKLSLKDRQAIAKAFDSLDKQMMAKSLEKFSKGFGVVGKAIDAASLYQEFKISTETGDWKPFFVKIETLAAGAAASWLVGIAFATATATPIGILGFALVMAVTGAMIDEDLLEKANNLVISI
B2: PyoS5_(1–315) (domain or fragment)
chain: MSNDNEVPGSMVIVAQGPDDQYAYEVPPIDSAAVAGNMFGDLIQREIYLQKNIYYPVRSIFEQGTKEKKEINKKVSDQVDGLLKQITQGKREATRQERVDVMSAVLHKMESDLEGYKKTFTKGPFIDYEKQSSLSIYEAWVKIWEKNSWEERKKYPFQQLVRDELERAVAYYKQDSLSEAVKVLRQELNKQKALKEKEDLSQLERDYRTRKANLEMKVQSELDQAGSALPPLVSPTPEQWLERATRLVTQAIADKKQLQTTNNTLIKNSPTPLEKQKAIYNGELLVDEIASLQARLVKLNAETTRRRTEAERKAA
notes: source: E. coli BL21(DE3), purified (HisTrap HP, Superdex 200 SEC)
B3: ferric pyochelin transporter FptA (receptor)
chain: DARKDGETELPDMVISGESTSATQPPGVTTLGKVPLKPRELPQSASVIDHERLEQQNLFSLDEAMQQATGVTVQPFQLLTTAYYVRGFKVDSFELDGVPALLGNTASSPQDMAIYERVEILRGSNGLLHGTGNPAATVNLVRKRPQREFAASTTLSAGRWDRYRAEVDVGGPLSASGNVRGRAVAAYEDRDYFYDVADQGTRLLYGVTEFDLSPDTLLTVGAQYQHIDSITNMAGVPMAKDGSNLGLSRDTYLDVDWDRFKWDTYRAFGSLEQQLGGGWKGKVSAEYQEADSRLRYAGSFGAIDPQTGDGGQLMGAAYKFKSIQRSLDANLNGPVRLFGLTHELLGGVTYAQGETRQDTARFLNLPNTPVNVYRWDPHGVPRPQIGQYTSPGTTTTTQKGLYALGRIKLAEPLTLVVGGRESWWDQDTPATRFKPGRQFTPYGGLIWDFARDWSWYVSYAEVYQPQADRQTWNSEPLSPVEGKTYETGIKGELADGRLNLSLAAFRIDLENNPQEDPDHPGPPNNPFYISGGKVRSQGFELEGTGYLTPYWSLSAGYTYTSTEYLKDSQNDSGTRYSTFTPRHLLRLWSNYDLPWQDRRWSVGGGLQAQSDYSVDYRGVSMRQGGYALVNMRLGYKIDEHWTAAVNVNNLFDRTYYQSLSNPNWNNRYGEPRSFNVSLRGAF
B4: PyoS5_(1–196) (domain or fragment)
chain: MSNDNEVPGSMVIVAQGPDDQYAYEVPPIDSAAVAGNMFGDLIQREIYLQKNIYYPVRSIFEQGTKEKKEINKKVSDQVDGLLKQITQGKREATRQERVDVMSAVLHKMESDLEGYKKTFTKGPFIDYEKQSSLSIYEAWVKIWEKNSWEERKKYPFQQLVRDELERAVAYYKQDSLSEAVKVLRQELNKQKALKE
notes: as for B2
B5: PyoS5_(1–299) (domain or fragment)
chain: MSNDNEVPGSMVIVAQGPDDQYAYEVPPIDSAAVAGNMFGDLIQREIYLQKNIYYPVRSIFEQGTKEKKEINKKVSDQVDGLLKQITQGKREATRQERVDVMSAVLHKMESDLEGYKKTFTKGPFIDYEKQSSLSIYEAWVKIWEKNSWEERKKYPFQQLVRDELERAVAYYKQDSLSEAVKVLRQELNKQKALKEKEDLSQLERDYRTRKANLEMKVQSELDQAGSALPPLVSPTPEQWLERATRLVTQAIADKKQLQTTNNTLIKNSPTPLEKQKAIYNGELLVDEIASLQARLVKL

Columns and labels:
Conditions in all cases: both partners purified
[1] = target: B3; assay: native MS
[2] = target: B3; assay: SPR
PyoS5_(1–315) Δ2–39 = target: T1, PyoS5_(1–315) Δ2–39 (P. aeruginosa, UniProt Q9I4Y4 1-315, Δ2–39); assay: SPR
T1 construct: source: E. coli BL21(DE3), purified (HisTrap HP, Superdex 200 SEC)

PyoS5_(1–315) Δ2–9 = target: T2, PyoS5_(1–315) Δ2–9 (P. aeruginosa, UniProt Q9I4Y4 1-315, Δ2–9); assay: SPR
T2 construct: source: E. coli BL21(DE3), purified (HisTrap HP, Superdex 200 SEC)

PyoS5_(1–315) Δ10–13 = target: T3, PyoS5_(1–315) Δ10–13 (P. aeruginosa, UniProt Q9I4Y4 1-315, Δ10–13); assay: SPR
T3 construct: source: E. coli BL21(DE3), purified (HisTrap HP, Superdex 200 SEC)

Row | Binder | binding result [1] | Kd [2] [µM] | further results
1 | B1 | binds |  | 
2 | B2 |  | 6.5 ± 0.4 | 
3 | B3 |  |  | Kd (PyoS5_(1–315) Δ2–39): 14.7 ± 0.4 µM; binding result (PyoS5_(1–315) Δ2–9): binds; binding result (PyoS5_(1–315) Δ10–13): binds
4 | B4 |  | 7.1 ± 0.7 | 
5 | B5 | binds |  | 
